# Measured values taken from the DeepSol protein solubility set.
# Assay: soluble on expression in E. coli; label from the status in PepcDB or PDB records
row,Sequence,soluble on expression in E. coli
1,MGSDKIHHHHHHMAGIRAKQKEKTRQALINAAMNQLSAENGFSSLSLREVAREAGIAPTSFYRHFRDMDELGLTLVDECGLALRQLLRQARQRIESGGSIIRVSIETFMQFVANNTATFRLLLQERSGRSRSFRLAVVREIDHFKAELEDYLVNEQSFSRELAELQSDTIAKIVFSAGADCFDVDEEEREIITEKTILQVRLVARGAEATRRLLKRES,not soluble
2,MAHHHHHHMANGVTANSMRVSVKAPDLGAFPLDHYRECKSEIEEYYTCLRSNDYVTPMCREQVRAYLQCRMDRGLMKPADIEGFGIPETEFVPMRQHRADIRQQWLRQKMNQVTAVWESYRRDDLNVPDGYERPRGSDSGGRPQPLPGETNKT,not soluble
3,GPGSMSLPCPSSSSPLLGSITSGVRSPSRGPVQQQQLLHQRHASMRLRLHKDGSICACPEKSGGGVSQACAPPLPATSAFARGKEEPSAKRHHAEPSSCPGPGGDSSSVDRSAAATVVTIAAPLLSIPNPSSRAAPSPFRFLCTSVGGCPVVGAKDARVHLPDSSARCDVSGSVAPRDLSTTSAHSKAHSTAAVGRASPSSGVVSPPLSATYPSLVSASHGARVVCSHPQSASASTVPGATIDTSAPSPVPSPPHRIHQHELRPADFRREEVLGEGSYSIVTLATHRASGLSFALKEIDRSRLRWRPLEAQLRWEINLQRTLRHPHIVRLYSYFITPDCISLVLEYCSGGTLLSRLRAAPQYRLSERQASRYTRHVAKALVHLHGLGVAHRDLKLENVLIDADGIAKLADFGWSRSVVHPLPSSKSAAAAQTAGDRNDAPCSSAEHNTSNEDPTEGVAEGRRTVCGTLDYLSPEMVSGQAHSAKTDVWSLGVMLAEMLTGTPPFYTESTQETLYAIQRLPPNLTGLHPKGHGPGLTGSGASTSASVCLILDEPVALSAGALSLIHAMLQKDPSARPTMPEVLGHPWLQKKKLARKS,not soluble
4,MAGDPMLKGRQTWEFENRPVILSSAATAGPFEANGPLADDFDILFEDMWLGEDSFEKAQKVLIEEAAKTAIEKAGIQNDDIQFVFAGDLLNQMTSTSFACRSLCIPYFGLFGACSTSMEGLALAAFVINHSGANYVLTGSTSHNAAIEKQFRYPTEYGAQKPPTAQWTATAAGVGVVAKVGSGPVVTSATIGKVVDMGLSDPFNMGEAMAPAAADTIEMHFQERGVGPDYYDLIATGDLGKIGLPIVKEMLEQKGYSFNDGQLNDCGLMIYRDGQPVLAGGSGSGCSASVTYGHLLNRMKKGEINRMLIVATGALLSPMSYQQNETIPCIAHAVSIEAGGALALEHHHHHH,not soluble
5,MSLLILIGWQIQVRQPSDYIMNKTEFYADLNRDFNALMAGETSFLATLANTSALLYERLTDINWAGFYLLEDDTLVLGPFQGKIACVRIPVGRGVCGTAVARNQVQRIEDVHVFDGHIACDAASNSEIVLPLVVKNQIIGVLDIDSTVFGRFTDEDEQGLRQLVAQLEKVLATTDYKKFFASVAGEGGSHHHHHH,soluble
6,MGSDKIHHHHHHMKHTEMSLTDKKIIITRAQEQTSEARKIFRKNGAEVFDLPSLVIGPPDDWAPLDDALKKISTFDWIIFSSANGVRNVEDRMREIGLSLSKISKTIQIAAVGRKTASLLSDMDAEISFVPPSFVADSLLEYFPQNQKGLKLFIPRVQTGGRSILSDSFRLNGAEVTEVAAYESSCPKDVPQKTIEALKSGEIDIIAFTSGKTVINTVSLFNKYFGGNWFKLIEKIKLVSIGPQTTISCKKLIRKPDKEAEPHDLEGLLNACLELKFN,not soluble
7,MSLVEAISLWNEGVLAADKKDWKGALDAFSAVQDPHSRICFNIGCMYTILKNMTEAEKAFTRSINRDKHLAVAYFQRGMLYYQTEKYDLAIKDLKEALIQLRGNQLIDYKILGLQFKLFACEVLYNIAFMYAKKEEWKKAEEQLALATSMKSEPRHSKIDKAMECVWKQKLYEPVVIPVGKLFRPNERQVAQLAKKDYLGKATVVASVVDQDSFSGFAPLQPQAAEPPPRPKTPEIFRALEGEAHRVLFGFVPETKEELQVMPGNIVFVLKKGNDNWATVMFNGQKGLVPCNYLEPVELRIHPQQQPQEESSPQSDIPAPPSSKAPGRPQLSPGQKQKEEPKEVKLSVPMPYTLKVHYKYTVVMKTQPGLPYSQVRDMVSKKLELRLEHTKLSYRPRDSNELVPLSEDSMKDAWGQVKNYCLTLWCENTVGDQGFPDEPKESEKADANNQTTEPQLKKGSQVEALFSYEATQPEDLEFQEGDIILVLSKVNEEWLEGECKGKVGIFPKVFVEDCATTDLESTRREV,soluble
8,MGSDKIHHHHHHMIDWLYSYPPLYPGILLKRYKRFFADVQLASGEVVTAHCPNTGPMTGVSTLGSVVQLSKSANPKRKLAYTLELIQVHDNEPTWVGVNTALPNQIVKLALAKYLFPELGSYNHIKSEVVYGVDKKSRVDFFLTGSDTERPIYLEVKNTTWAKGTLALFPDTETTRGQKHLRELMTLLPQTRSVMLYFINRGDCTEFAPGDSTDPIYGKLLREAIALGLEVLPCRFDVTPEGIRYLGLAKLVI,not soluble
9,SSKAIPKQDIPEIAYERFTLPNGLTVIVHEDHKAPVIAVNVWYHIGSADEPARKTGFAHLFEHLMFSGSENHKASYFQPFEKIGATGMNGTTWFDRTNYFQTVPTTALDMALWMESDRMGHLLGAIGQKELDTQRGVVKNEKRQRENVPYGRVTQNILSNLFPANHPYQHSTIGSMEDLEAASLADVKSWFQAHYGAANATLVLAGDITLAEARDKAAKYFGDIPAGPPVA,not soluble
10,MSVTEHKKQAPKEVRCKIVTISDTRTEETDKSGQLLHELLKEAGHKVTSYEIVKDDKESIQQAVLAGYHKEDVDVVLTNGGTGITKRDVTIEAVSALLDKEIVGFGELFRMISYLEDIGSSAMLSRAIGGTIGRKVVFSMPGSSGAVRLAMNKLILPELGHITFELHRQ,soluble
11,MGSDKIHHHHHHMNLKQLRYFVTICEEGQITAAAKRLHIKQPLLSYEIKQLELELETSLFIRGPRGISLTDAGKVLKPYAEQITELSDVAKTKVKYLDKGISGSLSIGSISSSINKLPNQRLLKLKKYYPNIAINVIEGNTYKLLGYLEKGLIDLAILRTPFSSKGVIGYYFDKEPMVAVSAKNNQKDTVGLPDKYLKIDDLSNKPLIIYRRFKELIENTFRNLGFNPLIVVRCDDARTALDGAKVGFGTAIVPKSAILQVENEGEKDIEFREIKEKALETQLAIMWRRDDSFNPLTENFLKMFIGK,not soluble
12,VLIAGYLTDWRIMTTAQLRPIAPQKLHFSENLSVWVSDAQCRLVVSQPALDPTLWNTYLQGALRAYSKHGVECTLDLDAISDGSDTQLFFAAIDIGGDVVGGARVIGPLRSADDSHAVVEWAGNPGLSAVRKMINDRAPFGVVEVKSGWVNSDAQRSDAIAAALARALPLSMSLLGVQFVMGTAAAHALDRWRSSGGVIAARIPAAAYPDERYRTKMIWWDRRTLANHAEPKQLSRMLVESRKLLRDVEALSATTAATAGAEQ,not soluble
13,MTETIKCIGCGVEIQTEDKNEVGYAPASSLEKEQVICQRCFRLKHYNEIQDVSLTDDDFLRILNGIGKSDALVVKIVDIFDFNGSWLPGLHRFVGNNKVLLVGNKADLIPKSVKHDKVKHWMRYSAKQLGLKPEDVFLISAAKGQGIAELADAIEYYRGGKDVYVVGCTNVGKSTFINRMIKEFSDETENVITTSHFPGTTLDLIDIPLDEESSLYDTPGIINHHQMAHYVGKQSLKLITPTKEIKPMVFQLNEEQTLFFSGLARFDYVSGGRRAFTCHFSNRLTIHRTKLEKADELYKNHAGDLLSPPTPEELENMPELVKYEFNIREPKTDVVFSGLGWVTVNEPGAKIVAHVPKGVSVSLRKSLILEHHHHHH,not soluble
14,MTYDSEFGSHVSLYRDRIKQVIDDSLNEHLNSMILRVDLHDPIDTENMDNPFFQPRVDSGAISRFTSALKAKLKHDKHIKTQRKDWPDSRHSTLRYAWVREYTKNRKRHYHLILCFNQDAYYHLGDYDLNRNTLRTMITTAWYSALGIPIDSSGKLVNYPPNGKYLLNRKRDNFEQTYSDLMNRVDYMTKVRTKIVGDGDRNFGCSRG,soluble
15,ADETLAEFHVEMGGCENCHADGEPSKDGAYEFEQCQSCHGSLAEMDDNHKPHDGLLMCADCHAPHEAKVGEKPTCDTCHDDGRTAK,soluble
16,MGLRDRFSNYLFKKAEKRGYLDNVLGKSIRYSGVYVTDSNILQSSDVYELLQDISNQMVLADIVVEDEFGNEIKDDIALQILRNPNNYLTQSEFIKLMTNTYLLEGETFPILNGAQIHLASNVFTELDDNLVEHFNIGGHEIPPCMIRHVKNIGADHLRGKGILDLGRDTLEGVMSAEKTLTDKYKKGGLLTFLLNLDAHINPQNGAQSKLINAILDQLESIDEARSVKMIPLGKGYSIDTLKSPLDDEKTLAYLNVYKKDLGKFLGINVDTYTELIKEDIEKAMMYIHNKAVRPIMKNFEDHLSLLFYAQNSGKRIKFKINILDFVTYSNKTNIGYNLVRTAITSPDNVADMLGFPKQNTKESQAIYISNDVTEIGKKEATDGSLGGGEENEN,not soluble
17,MSSNAQVRPPLPPFTRESAIEKIRLAEDGWNSRDPERVSLAYTLDTQWRNRAEFAHNREEAKAFLTRKWAKELDYRLIKELWAFTDNRIAVRYAYEWHDDSGNWFRSYGNENWEFDEQGLMARRFACINDMPIKAQERKFHWPLGRRPDDHPGLSELGLLEHHHHHH,soluble
18,MSVNALYDYKFEPKDKVENFHGMQLLYVYWPDHLLFCAPFALLVQPGMTFSALVDEILKPATAAHPDSAKADFLNAEWLLNDEPFTPKADASLKEQGIDHKSMLTVTTPGLKGMANAGY,soluble
19,MSLHATMEDVAKLAGVSLKSVSRVINAEPHVSAKLRAKVEAAIAELNYVPDTAARSLAGSRAFIVGLLFDNPSPNYTMNIQKGVYETCRDQQHHLRIDNIDSTVPAEKFEAQLAAMVRNSRCDGFVLTPPLTDNVVLLDFLDRSGIRYVRIAPDIQPDRSPGVCIDDAAAAAAAARHLWELGHRRFAVVRGPASHGAAGRRRQGFIDELHRLGAENPIIEAEGNFSFESGIAAGAKVLAATPRPTAIFAANDDSAAGVMVACSQAGLKVPNDVSVCGFDDSWVAKSVWPYLTTVYQPIEEMGRAAAALLLRRDEPDNVLHELDFSLVVRASTAEGHHHHHH,soluble
20,MSAQASRQKKSDQEQRAADQALLNAAIEDNAMEQDENFTVIDKLESSGISSGDISKLKEAGYYTYESLAFTTRRELRNVKGISDQKAEKIMKEAMKFVQMGFTTGAEVHVKRSQLVQIRTGSASLDRLLGGGIETGSITEVYGEYRTGKTQLCHSLAVLCQLPIDMGGGEGKCMYIDTNATFRPERIIAIAQRYNMDSAHVLENIAVARAYNSEHLMALIIRAGAMMSESRYAVVIVDCATAHFRNEYTGRGDLAERQMKLSAFLKCLAKLADEYGVAVIITNQVVAQVDGGASMFQADAKKPIGGHIIAHMSTTRLYLRKGKGENRVAKMVQSPNLPEAEATYSITNHGIEDARED,not soluble
21,MSLGRFKTLLNQEDYLILHGALGTELEFLGYDVSGKLWSAKYLLENPSIIQTIHETYLRSGSDIVTTSSYQASYQGLCDYGLSQEEAEKMIALTVSLAKNAREKVWQELSEKEKQVRPYPLISGDVGPYAAYLADGSEYTGNYGQLDKEVLKDFHRSRIKILVDEGSDLLALETIPNFLEAQALVELLQEEFPSVEAYMSFTAQNGTTISDGTAIEEVAELIDKASQILALGINCSSPSVYSSLLKKIADITDKPLVTYPNSGEVYDGQHQMWTQSADISHTLLENTKIWHTFGAKVVGGCCRTRPNDIESLSRGLREEGHHHHHH,soluble
